Results taken from the supplement of paper PMC12667976.

B1: library; numbered along this chain (parent)
chain: MATDAALRRLLRLHRTEIAVAVDSAFPLLHALADHDVVPEDKFQETLHLKEKEGCPQAFHALLSWLLTQDSTAILDFWRVLFKDYNLERYGRLQPILDSFPKDVDLSQPRKGRKPPAVPKALVPPPRLPTKRKASEEARAAAPAALTPRGTASPGSQLKAKPPKKPESSAEQQRLPLGNGIQTMSASVQRAVAMSSGDVPGARGAVEGILIQQVFESGGSKKCIQVGGEFYTPSKFEDSGSGKNKARSSSGPKPLVRAKGAQGAAPGGGEARLGQQGSVPAPLALPSDPQLHQKNEDECAVCRDGGELICCDGCPRAFHLACLSPPLREIPSGTWRCSSCLQATVQEVQPRAEEPRPQEPPVETPLPPGLRSAGEEVRGPPGEPLAGMDTTLVYKHLPAPPSAAPLPGLDSSALHPLLCVGPEGQQNLAPGARCGVCGDGTDVLRCTHCAAAFHWRCHFPAGTSRPGTGLRCRSCSGDVTPAPVEGVLAPSPARLAPGPAKDDTASHEPALHRDDLESLLSEHTFDGILQWAIQSMARPAAPFPS

Variants of: B1
Experiment: AIRE transcriptional activation functional score (insulin promoter-GFP; nonsense median 0, synonymous median 1) (normalised score); higher = higher AIRE activity (more reporter activation)
Details: with insulin promoter-GFP reporter in HEK293
Description: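 Deep mutational scan of full-length human AIRE (codon-optimized cDNA, DT-POPCode NNN libraries over three regions) integrated at a Bxb1 landing pad in HEK293 cells carrying an insulin core promoter-GFP reporter at a Flp-In site. Cells were sorted for the top 10% GFP about 14 days after transfection. Variant frequency log-ratios (select vs non-select, TileSeq) were rescaled so that the nonsense median is 0 and the synonymous median is 1, then averaged over biological replicates.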

AIRE transcriptional activation functional score, by site and new letter:
S217: P 0.572 | Y 0.669 | F 0.411 | R 0.942 | Q 0.502 | T 0.908 | H 1.07 | A 0.4 | K 0.417 | W 0.119 | M 0.709 | D 1.57 | V 0.98 | L 0.613 | G 1.1 | C 1.16 | I 0.549 | N 0.895 | E 0.8
G219: C 1.5 | A 1.13 | H 0.761 | P 0.556 | W 0.981 | D 0.836 | E 0.654 | F 0.625 | L 1.14 | Y 1.14 | V 1.14 | T 1.01 | N 0.637 | S 0.761 | I 1.35 | R 0.858 | M 0.958 | Q 0.0466
G228: K 0.799 | Q -1.12 | R 1.26 | T 1.57 | N 1.51 | H -2 | V 0.421 | Y 0.381 | C 0.71 | I -0.341 | D 1.05 | E 0.668 | S 0.591 | P 0.904 | F 0.331 | A 0.509 | W -0.356 | L -1.11
F230: T 0.761 | A 0.596 | H 0.48 | Q 0.665 | N 0.425 | R 0.603 | L 0.774 | Y 0.502 | P 0.293 | I 0.507 | K 0.376 | V 0.617 | D 0.723 | W 0.97 | M 0.801 | E 0.377 | S 0.473 | G 0.617 | C 0.611
Q225: T 0.688 | I 0.248 | K 1.23 | G 0.56 | H 0.951 | D 0.269 | R 0.916 | C -0.424 | V -0.115 | W 0.582 | L -0.23 | E 1.13 | S 0.993 | Y -0.259 | N 0.762 | M -0.00432 | F -0.00208 | P 0.572 | A 0.99
F215: G 0.391 | E 0.601 | L 0.751 | I 0.64 | W 0.878 | D 0.909 | P 0.715 | A 0.568 | T -0.146 | R 0.351 | S 0.474 | Y 0.54 | V 0.289 | M 0.136 | C 0.382 | H 0.814 | K -0.187
K222: E 0.916 | M -0.00949 | P 0.845 | S 0.847 | R 1.05 | G 0.393 | A 0.955 | C -0.312 | F -0.315 | Y -1.15 | D 0.771 | N 0.679 | Q 1.11 | H 0.644 | W -0.0951 | V 0.137 | L 0.0335 | I 0.0162 | T 0.149
V226: Q 0.554 | G 0.814 | Y 0.994 | W 1.21 | D 0.724 | I 0.848 | P 1.09 | L 1.08 | T 0.799 | M 0.67 | S 0.403 | E 0.0129 | H 0.579 | F 0.889 | C 0.347 | R 0.531 | A 0.677 | K 0.148 | N -0.139
I224: A 0.495 | D 0.864 | M 1.07 | Y 0.84 | C 0.709 | P 0.419 | N 0.402 | R 0.498 | H 0.512 | L 0.689 | V 0.58 | F 0.959 | Q 0.197 | E 1 | S 0.599 | G 0.296 | W 1.11 | T 0.559 | K 0.822
Q213: R 0.637 | Y 1.23 | P 0.531 | S 0.639 | V -0.393 | T 0.965 | W -1.06 | N 0.805
G227: H 0.263 | K 0.245 | S 0.225 | V 0.378 | A 0.503 | R 0.425 | T -0.68 | P 0.459 | W 0.742 | L 0.445 | I -0.209 | M -1.01 | Q 1.02 | E 0.368 | F -0.195 | N 0.587 | Y 0.111 | C 0.85
Y231: H 0.724 | R 0.669 | E 0.639 | F 1.05 | S 0.49 | M 0.624 | K 0.204 | G 0.475 | V 0.771 | Q 0.625 | A 0.676 | W 1.05 | I 0.701 | P 0.54 | N 0.775 | C 0.601 | T 0.493 | L 0.803 | D 0.734
K221: C 0.921 | W 0.337 | D 0.706 | H 0.705 | A -0.576 | V 0.663 | N 0.995 | I -0.82 | M 1.02 | P 0.766 | Y 0.0318 | L 0.328 | Q 0.621 | S 0.464 | E 1.1 | R 0.95 | F -0.0481 | G 0.945
S220: Y -0.203 | R 1.06 | W -1.37 | E 1.14 | L 1.04 | T 0.905 | I 0.449 | C 1.21 | A 0.262 | Q -1.55 | M 1.16 | G 0.764 | F 0.305 | P -0.127 | V 0.743 | D 0.488
E229: M 0.122 | C 0.0314 | I 0.102 | A -0.0287 | F 0.704 | K 0.571 | P 0.679 | L 0.0432 | N 0.433 | W -0.162 | R 0.148 | V 0.158 | Q 1.13 | H 0.361 | Y -0.363 | S 0.662 | T -0.101 | D 0.886 | G 1.15
G218: I 1.14 | R 1.13 | E -0.051 | L 1.01 | A 1.02 | M 1.01 | V 1.1 | H 1.03 | N 0.111 | F 0.259 | P 0.651 | T 1.11 | C 0.887 | Q -0.344 | S 0.817 | D 0.885 | K 0.888 | Y 0.677 | W -0.332
C223: A 0.737 | E 0.793 | R 0.797 | G 0.803 | K 0.604 | N 0.407 | P 0.562 | L 0.844 | H 0.784 | Q 0.474 | F 0.324 | T 1.15 | Y 0.577 | D 0.503 | M 0.937 | S 0.477 | I 0.0416 | V 0.923 | W -0.0978
V214: S 0.447 | H 0.137 | R 0.66 | E 0.383 | C 1.01 | L 0.413 | F 1.01 | Y 1.25 | A 0.717 | P 0.238 | M 0.284 | G 0.556 | W 0.402 | I 0.735
E216: H 0.489 | G 1.09 | N 1.75 | Q 0.964 | I -1.75 | D 0.741 | V 0.252 | R -0.537 | K 1.2 | A 0.655 | C 0.558 | L 1.42 | W 0.395 | S 1.33
T232: C 0.594 | D 1.19 | A 0.926
